How the values were obtained:
NSW-2012 GII.4 P domain = target: T1, NSW-2012 GII.4 P domain (Norovirus …, strain); experiment: ITC
T1 chain: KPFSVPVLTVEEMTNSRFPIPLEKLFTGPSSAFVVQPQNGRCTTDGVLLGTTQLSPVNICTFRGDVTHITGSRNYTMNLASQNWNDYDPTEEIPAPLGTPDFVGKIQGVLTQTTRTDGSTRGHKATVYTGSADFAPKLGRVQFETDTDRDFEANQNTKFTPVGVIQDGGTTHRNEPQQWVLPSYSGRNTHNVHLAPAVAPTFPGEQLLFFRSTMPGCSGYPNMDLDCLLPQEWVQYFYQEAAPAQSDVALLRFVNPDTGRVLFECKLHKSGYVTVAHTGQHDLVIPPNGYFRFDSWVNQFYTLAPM

Saga-2006 GII.4 VLPs = Saga-2006 GII.4 VLPs (Norovirus Hu/GII.4/Saga4/2006/JP …, UniProt B5BTR7, strain); experiment: ELISA
CHDC-1974 GII.4 VLPs = CHDC-1974 GII.4 VLPs (Norovirus Hu/GII.4/CHDC2094/1974/US …, UniProt D0QJ68, strain); experiment: ELISA

B1: 10E9 MAb (IgG) (antibody, V domains shown)
VH: QVQLQQSGAELMKPGASVKISCTATGYTFITYWIQWVKQRPGHGLEWIGETLPGSGSTNYNEKFKGKATFTADTSSNTAYMQLSSLTSEDSAIYYCARIGRSNDYWGQGTTLTVSS
VL: QIVLTQSPTIMSASPGEKVTMTCSASSSVDYMHWYQQKSGTSPKRWIYDTYKLASGVPARFSGSGSGTSYSLTINSMEAEDAATYYCQQWSSNPLTFGAGTKLELK
NSW-2012 GII.4 P domain
  Kd: 59 nM
  dH: -4.3 ± 0.011 kcal/mol
  stoichiometry N: 0.98
Saga-2006 GII.4 VLPs
  binding result: binds
CHDC-1974 GII.4 VLPs
  binding result: no binding

— publication doi:10.1101/489906 (bioRxiv, 2018)
